From publication PMC12114846, “Interleukin-15Rα-Sushi-Fc Fusion Protein Co-Hitchhikes Interleukin-15 and Pheophorbide A for Cancer Photoimmunotherapy” (Pharmaceutics, 2025)

Target: IL-15 (Homo sapiens), P40933
Conditions: Fc fusion; remark: other sources report otherwise

Chain of IL-15 (Homo sapiens), P40933 (P40933 49-162): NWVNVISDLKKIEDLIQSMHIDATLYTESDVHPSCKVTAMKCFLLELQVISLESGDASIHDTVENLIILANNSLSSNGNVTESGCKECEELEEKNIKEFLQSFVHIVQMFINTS

B1: rIL-15Rα-Fc, Q13261 (protein)
chain: ITCPPPMSVEHADIWVKSYSLYSRERYICNSGFKRKAGTSSLTECVLNKATNVAHWTTPSLKCIRDPALVHQRPAPPSTVTTAGVTPQPESLSPSGKEPAASSPSSNNTAATTAAIVPGSQLMPSKSPSTGTTEISSHESSHGTPSQTTAKNWELTASASHQPPGVYPQGHSDTT
**Q.** Which Kd does the source give for B1 here?
**A.** 0.115 nM
